Source: patent publication US20240360203A1

Legend:
Assay in all cases: DELFIA on captured biotin-peptide
Parameters in all cases: unit not given beside the values
[1] = target: SARS-CoV-2 spike S2 peptide 1133-1147, biotinylated (SARS-CoV-2)
[2] = target: SARS-CoV-2 spike S2 peptide 1141-1155, biotinylated (SARS-CoV-2)
[3] = target: SARS-CoV-2 spike S2 peptide 1153-1167, biotinylated (SARS-CoV-2)
[4] = target: SARS-CoV-2 spike S2 peptide 1149-1163, biotinylated (SARS-CoV-2)
[5] = target: SARS-CoV-2 spike S2 peptide 1137-1151, biotinylated (SARS-CoV-2)
[6] = target: SARS-CoV-2 spike S2 peptide 1143-1162, biotinylated (SARS-CoV-2)
[7] = target: SARS-CoV-2 spike S2 peptide 1149-1167, biotinylated (SARS-CoV-2)
[8] = target: SARS-CoV-2 spike S2 peptide 1145-1159, biotinylated (SARS-CoV-2)
[9] = target: SARS-CoV-2 spike S2 peptide 1157-1171, biotinylated (SARS-CoV-2)

isotype control (palivizumab variable regions expressed as human IgG1 with LS mutation in the Fc region) (antibody)
AUC [1]: 4060
AUC [2]: 13300
AUC [3]: 8120
AUC [4]: 20500
AUC [5]: 19300
AUC [6]: 3110
AUC [7]: 2600
AUC [8]: 1520
AUC [9]: 3110
